Read-outs that look alike come from different tables or passages of the source.
How the values were obtained:
HIV HR1 polypeptide = molecular target: T1, HIV HR1 polypeptide (Human immunodeficiency virus type 1 group M subtype B, UniProt P04578); experiment: biochemical; type: binding; conditions: for kon: read-out: ka
T1 construct: made in house; host or cells: chemical peptide synthesis (no expression host)
Protocol: All surface plasmon resonance measurements were performed on a BIAcore 3000 instrument (GE Healthcare Biosciences AB, Sweden) at 25° C. Chemically prepared HIV HR1 peptide (heptad repeat 1; Biotin-[…] Q-NH2 (SEQ ID NO: 87)) was immobilized on a CM5 biosensor chip according to the manufacturer instructions (GE Healthcare Biosciences AB, Sweden). The fusion polypeptide was diluted to a concentration of 25 nM and injected over 5 minutes at a flow rate of 50 μl/min. Thereafter the protein complex obtained from different combined fractions was diluted into the same buffer to concentrations of 250 nM and 80 nM and injected over 5 minutes at a flow rate of 50 μl/min. Afterwards the sensor chip was regenerated for 1 minute with PBS, pH 8.0, 0.005% (v/v) Tween 20. Data analysis was performed with the BIAevaluation software (BIAcore, Sweden) (see FIG. 4).

[1] = tested on: HIV cell-cell-membrane fusion; experiment: cell-cell-fusion-assay (CCF-assay), antiviral activity; type: cell-based
Excerpt: The amino acid sequence of fusion polypeptide FP-1 is SEQ ID NO: 76, the amino acid sequence of fusion polypeptide FP-2 is SEQ ID NO: 77, and the amino acid sequence of fusion polypeptide FP-3 is SEQ ID NO: 78. In the fusion polypeptides FP-1 to FP-3 the same serpin-finger polypeptide is conjugated to different HIV fusion inhibitor polypeptides. The fusion polypeptide FP-3 is expressed better in E. coli than FP-2 and in turn FP-2 is expressed better than the fusion polypeptide FP-1. The same sequence of the fusion polypeptides is obtained for the binding to target HIV HR-1 polypeptide (FP-3>FP-2>FP-1) in a BIAcore assay. The same sequence has also been found for the anti-viral activity in a cell-cell-fusion-assay (CCF-assay).

[2] = BIAcore 3000, 25° C., HR1 peptide immobilized on CM5 chip

T1 sequence (P04578 540-590): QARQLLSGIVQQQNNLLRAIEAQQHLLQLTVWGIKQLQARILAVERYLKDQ

With `CC[C@H](C)[C@H](NC(=O)[C@H](CC(C)C)NC(=O)[C@H](CO)NC(=O)[C@H](Cc1c[nH]cn1)NC(=O)[C@@H](NC(=O)[C@H](CC(C)C)NC(=O)[C@H](CO)NC(=O)[C@@H](NC(=O)[C@H](Cc1ccc(O)cc1)NC(=O)[C@H](CC(N)=O)NC(=O)[C@H](CC(N)=O)NC(=O)[C@@H](NC(=O)[C@H](CCC(=O)O)NC(=O)[C@H](CCCNC(=N)N)NC(=O)[C@H](CC(=O)O)NC(=O)[C@H](Cc1c[nH]c2ccccc12)NC(=O)[C@H](CCC(=O)O)NC(=O)[C@H](CCSC)NC(=O)[C@H](Cc1c[nH]c2ccccc12)NC(=O)[C@@H](NC(=O)[C@@H](N)CCSC)[C@@H](C)O)[C@@H](C)CC)[C@@H](C)O)[C@@H](C)CC)C(=O)N[C@@H](CCC(=O)O)C(=O)N[C@@H](CCC(=O)O)C(=O)N[C@@H](CO)C(=O)N[C@@H](CCC(N)=O)C(=O)N[C@@H](CC(N)=O)C(=O)N[C@@H](CCC(N)=O)C(=O)N[C@@H](CCC(N)=O)C(=O)N[C@@H](CCC(=O)O)C(=O)N[C@@H](CCCCN)C(=O)N[C@@H](CC(N)=O)C(=O)N[C@@H](CCC(=O)O)C(=O)N[C@@H](CCC(N)=O)C(=O)N[C@@H](CCC(=O)O)C(=O)N[C@@H](CC(C)C)C(=O)N[C@@H](CC(C)C)C(=O)O` [T-651, reference compound] the kon (HIV HR1 polypeptide; [2]) was 1.65e+06 M⁻¹ s⁻¹.

`CC[C@H](C)[C@H](NC(=O)[C@H](CCC(N)=O)NC(=O)[C@H](C)NC(=O)[C@H](CCC(N)=O)NC(=O)[C@H](CCC(=O)O)NC(=O)[C@H](CC(C)C)NC(=O)[C@H](CC(C)C)NC(=O)[C@H](C)NC(=O)[C@@H](NC(=O)[C@@H](NC(=O)[C@H](CCCCN)NC(=O)[C@H](CCC(N)=O)NC(=O)[C@H](CCC(=O)O)NC(=O)[C@H](Cc1c[nH]c2ccccc12)NC(=O)[C@H](CCC(=O)O)NC(=O)[C@H](CCC(N)=O)NC(=O)[C@H](Cc1c[nH]c2ccccc12)NC(C)=O)[C@@H](C)CC)[C@@H](C)O)C(=O)N[C@@H](CCC(N)=O)C(=O)N[C@@H](CCC(N)=O)C(=O)N[C@@H](CCC(=O)O)C(=O)N[C@@H](CCCCN)C(=O)N[C@@H](CC(N)=O)C(=O)N[C@@H](CCC(=O)O)C(=O)N[C@@H](Cc1ccc(O)cc1)C(=O)N[C@@H](CCC(=O)O)C(=O)N[C@@H](CC(C)C)C(=O)N[C@@H](CCC(N)=O)C(=O)N[C@@H](CCCCN)C(=O)N[C@@H](CC(C)C)C(=O)N[C@@H](CC(=O)O)C(=O)N[C@@H](CCCCN)C(=O)N[C@@H](Cc1c[nH]c2ccccc12)C(=O)N[C@@H](C)C(=O)N[C@@H](CO)C(=O)N[C@@H](CC(C)C)C(=O)N[C@@H](Cc1c[nH]c2ccccc12)C(=O)N[C@@H](CCC(=O)O)C(=O)N[C@@H](Cc1c[nH]c2ccccc12)C(=O)N[C@@H](Cc1ccccc1)C(N)=O` [T-1249, reference compound] was tested, and the kd (HIV HR1 polypeptide; [2]) was 0.00127 s⁻¹.

`CC[C@H](C)[C@H](NC(=O)[C@H](C)NC(=O)[C@H](CCCNC(=N)N)NC(=O)[C@H](CC(=O)O)NC(=O)[C@H](Cc1c[nH]c2ccccc12)NC(=O)[C@H](C)NC(=O)[C@H](CCC(=O)O)NC(=O)[C@H](Cc1c[nH]c2ccccc12)NC(=O)[C@@H](NC(=O)[C@@H](N)[C@@H](C)O)[C@@H](C)O)C(=O)N[C@@H](C)C(=O)N[C@@H](CCC(=O)O)C(=O)N[C@@H](Cc1ccc(O)cc1)C(=O)N[C@@H](C)C(=O)N[C@@H](C)C(=O)N[C@@H](CCCNC(=N)N)C(=O)N[C@H](C(=O)N[C@@H](CCC(=O)O)C(=O)N[C@@H](C)C(=O)N[C@@H](CC(C)C)C(=O)N[C@H](C(=O)N[C@@H](CCCNC(=N)N)C(=O)N[C@@H](C)C(=O)N[C@@H](C)C(=O)N[C@@H](CCC(N)=O)C(=O)N[C@@H](CCC(=O)O)C(=O)N[C@@H](CCC(N)=O)C(=O)N[C@@H](CCC(N)=O)C(=O)N[C@@H](CCC(=O)O)C(=O)N[C@@H](CCCCN)C(=O)N[C@@H](CC(N)=O)C(=O)N[C@@H](CCC(=O)O)C(=O)N[C@@H](C)C(=O)N[C@@H](C)C(=O)N[C@@H](CC(C)C)C(=O)N[C@@H](CCCNC(=N)N)C(=O)N[C@@H](CCC(=O)O)C(=O)N[C@@H](CC(C)C)C(=O)O)[C@@H](C)CC)[C@@H](C)CC` [T-2635, reference compound] gave a kon (HIV HR1 polypeptide) of 1.11e+06 M⁻¹ s⁻¹.

“FP-2: SEQ ID NO: 77=GR+SEQ ID NO: 82+SEQ ID NO: 75+SEQ ID NO: 13; serpin-finger, linker, T-651 (GRGTEAAGAMFLEAIPMSTTWMEWDKEINNYTSLIHSLIEESQNQQEKNEQELL)” showed an IC50 [1] of 330 nM, a KA (HIV HR1 polypeptide) of 1.08e+10 M⁻¹ and a Kd (HIV HR1 polypeptide) of 0.0924 nM. The ka (HIV HR1 polypeptide) was 1.29e+06 M⁻¹ s⁻¹ and the kd (HIV HR1 polypeptide) was 0.000119 s⁻¹.

B1: FP-3: SEQ ID NO: 78=GR+SEQ ID NO: 83+SEQ ID NO: 50+SEQ ID NO: 40; serpin-finger, linker, T-2635 (protein)
chain: GKSGTEAAGAMFLEAIPMSGGGGSGGGGSGGGGTTWEAWDRAIAEYAARIEALIRAAQEQQERNEAALREL
B1 gave an IC50 [1] of 200 nM, a KA (HIV HR1 polypeptide) of 3.22e+10 M⁻¹ and a Kd (HIV HR1 polypeptide) of 0.031 nM. It also gave a ka (HIV HR1 polypeptide) of 991000 M⁻¹ s⁻¹ and a kd (HIV HR1 polypeptide) of 3.07e-05 s⁻¹.

B2: FP-1: SEQ ID NO: 76=GR+SEQ ID NO: 05+SEQ ID NO: 52+SEQ ID NO: 37; serpin-finger, linker, T-1249 (protein)
chain: GRTEAAGAMFLEAIPMSGGGGSGGGGSGGGGTWQEWEQKITALLEQAQIQQEKNEYELQKLDKWASLWEWF
For B2, the IC50 [1] was 700 nM, the KA (HIV HR1 polypeptide) was 6.29e+08 M⁻¹ and the Kd (HIV HR1 polypeptide) was 1.59 nM. The ka (HIV HR1 polypeptide) was 227000 M⁻¹ s⁻¹ and the kd (HIV HR1 polypeptide) was 0.000361 s⁻¹.

From patent US9403896B2, “Serpin-finger fusion polypeptide” (Hoffmann-La Roche Inc., priority 2010, dated 2016)
